Data from patent publication US20170334979A1 (published 2017).

B1: 7A (protein)
chain: EVQLVESGGGLVQPGNSLRLSCAASGFTFSKFGMSWVRQAPGKGLEWVSSISGSGADTLYADSLKGRFTISRDNAKTTLYLQMNSLRPEDTAVYYCTIGGSLSKSSQGTLVTVSS
B2: cynomolgus monkey serum albumin (other)
chain: DTHKSEVAHRFKDLGEEHFKGLVLVAFSQYLQQCPFEEHVKLVNEVTEFAKTCVADESAENCDKSLHTLFGDKLCTVATLRETYGEMADCCAKQEPERNECFLQHKDDNPNLPPLVRPEVDVMCTAFHDNEATFLKKYLYEVARRHPYFYAPELLFFAARYKAAFAECCQAADKAACLLPKLDELRDEGKASSAKQRLKCASLQKFGDRAFKAWAVARLSQKFPKAEFAEVSKLVTDLTKVHTECCHGDLLECADDRADLAKYMCENQDSISSKLKECCDKPLLEKSHCLAEVENDEMPADLPSLAADYVESKDVCKNYAEAKDVFLGMFLYEYARRHPDYSVMLLLRLAKAYEATLEKCCAAADPHECYAKVFDEFQPLVEEPQNLVKQNCELFEQLGEYKFQNALLVRYTKKVPQVSTPTLVEVSRNLGKVGAKCCKLPEAKRMPCAEDYLSVVLNRLCVLHEKTPVSEKVTKCCTESLVNRRPCFSALELDEAYVPKAFNAETFTFHADMCTLSEKEKQVKKQTALVELVKHKPKATKEQLKGVMDNFAAFVEKCCKADDKEACFAEEGPKFVAASQAALA

Key:
Experiment in all cases: purified sdAb binding
[1] = molecular target: mouse serum albumin (mouse, UniProt P07724 25-608)
mouse serum albumin, sequence (P07724 25-608): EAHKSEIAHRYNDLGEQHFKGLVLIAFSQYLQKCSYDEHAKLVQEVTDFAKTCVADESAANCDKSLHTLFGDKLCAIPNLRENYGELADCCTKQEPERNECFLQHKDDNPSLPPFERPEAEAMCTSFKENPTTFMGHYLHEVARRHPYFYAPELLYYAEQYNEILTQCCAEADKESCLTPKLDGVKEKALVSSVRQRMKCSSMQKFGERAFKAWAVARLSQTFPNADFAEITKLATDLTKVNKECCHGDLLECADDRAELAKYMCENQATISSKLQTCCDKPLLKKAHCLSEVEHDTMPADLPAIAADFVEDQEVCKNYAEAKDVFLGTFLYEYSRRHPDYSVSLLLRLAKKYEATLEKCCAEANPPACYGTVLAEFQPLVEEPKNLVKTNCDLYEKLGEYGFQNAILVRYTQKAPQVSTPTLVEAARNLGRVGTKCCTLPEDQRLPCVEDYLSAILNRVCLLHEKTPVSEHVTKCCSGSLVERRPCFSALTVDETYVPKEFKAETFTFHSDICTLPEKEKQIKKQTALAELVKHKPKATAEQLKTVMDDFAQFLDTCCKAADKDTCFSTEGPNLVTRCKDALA

[2] = molecular target: human serum albumin (human, UniProt P02768 25-609)
[3] = molecular target: B2
[4] = molecular target: 10GE

Binder | Kd [1] [nM] | Kd [2] [nM] | Kd [3] [nM] | Kd [4] [nM]
B1 | 12.3 | 1.9 | 1.7 | 
B2 |  |  |  | 1.6
